Measurements reported in IntAct's records for PubMed 21979047.

B1: Complement factor H (Homo sapiens), P08603 (parent)
chain: MRLLAKIICLMLWAICVAEDCNELPPRRNTEILTGSWSDQTYPEGTQAIYKCRPGYRSLGNVIMVCRKGEWVALNPLRKCQKRPCGHPGDTPFGTFTLTGGNVFEYGVKAVYTCNEGYQLLGEINYRECDTDGWTNDIPICEVVKCLPVTAPENGKIVSSAMEPDREYHFGQAVRFVCNSGYKIEGDEEMHCSDDGFWSKEKPKCVEISCKSPDVINGSPISQKIIYKENERFQYKCNMGYEYSERGDAVCTESGWRPLPSCEEKSCDNPYIPNGDYSPLRIKHRTGDEITYQCRNGFYPATRGNTAKCTSTGWIPAPRCTLKPCDYPDIKHGGLYHENMRRPYFPVAVGKYYSYYCDEHFETPSGSYWDHIHCTQDGWSPAVPCLRKCYFPYLENGYNQNYGRKFVQGKSIDVACHPGYALPKAQTTVTCMENGWSPTPRCIRVKTCSKSSIDIENGFISESQYTYALKEKAKYQCKLGYVTADGETSGSITCGKDGWSAQPTCIKSCDIPVFMNARTKNDFTWFKLNDTLDYECHDGYESNTGSTTGSIVCGYNGWSDLPICYERECELPKIDVHLVPDRKKDQYKVGEVLKFSCKPGFTIVGPNSVQCYHFGLSPDLPICKEQVQSCGPPPELLNGNVKEKTKEEYGHSEVVEYYCNPRFLMKGPNKIQCVDGEWTTLPVCIVEESTCGDIPELEHGWAQLSSPPYYYGDSVEFNCSESFTMIGHRSITCIHGVWTQLPQCVAIDKLKKCKSSNLIILEEHLKNKKEFDHNSNIRYRCRGKEGWIHTVCINGRWDPEVNCSMAQIQLCPPPPQIPNSHNMTTTLNYRDGEKVSVLCQENYLIQEGEEITCKDGRWQSIPLCVEKIPCSQPPQIEHGTINSSRSSQESYAHGTKLSYTCEGGFRISEENETTCYMGKWSSPPQCEGLPCKSPPEISHGVVAHMSDSYQYGEEVTYKCFEGFGIDGPAIAKCLGEKWSHPPSCIKTDCLSLPSFENAIPMGEKKDVYKAGEQVTYTCATYYKMDGASNVTCINSRWTGRPTCRDTSCVNPPTVQNAYIVSRQMSKYPSGERVRYQCRSPYEMFGDEEVMCLNGNWTEPPQCKDSTGKCGPPPPIDNGDITSFPLSVYAPASSVEYQCQNLYQLEGNKRITCRNGQWSEPPKCLHPCVISREIMENYNIALRWTAKQKLYSRTGESVEFVCKRGYRLSSRSHTLRTTCWDGKLEYPTCAKR

Variants of: B1
Conditions: with albu_bovin ALB

effect of a mutation on the interaction	Variant
decreasing interaction strength	Y402H
